Experimental data taken from patent US20250002610A1 (Genmab, published 2025).

T1: human FAPα (Fibroblast activation protein alpha), cell surface expressed (human, UniProt Q12884 1-760)
T1 construct: Endogenous on human lung fibroblasts and CAFs
T1 sequence: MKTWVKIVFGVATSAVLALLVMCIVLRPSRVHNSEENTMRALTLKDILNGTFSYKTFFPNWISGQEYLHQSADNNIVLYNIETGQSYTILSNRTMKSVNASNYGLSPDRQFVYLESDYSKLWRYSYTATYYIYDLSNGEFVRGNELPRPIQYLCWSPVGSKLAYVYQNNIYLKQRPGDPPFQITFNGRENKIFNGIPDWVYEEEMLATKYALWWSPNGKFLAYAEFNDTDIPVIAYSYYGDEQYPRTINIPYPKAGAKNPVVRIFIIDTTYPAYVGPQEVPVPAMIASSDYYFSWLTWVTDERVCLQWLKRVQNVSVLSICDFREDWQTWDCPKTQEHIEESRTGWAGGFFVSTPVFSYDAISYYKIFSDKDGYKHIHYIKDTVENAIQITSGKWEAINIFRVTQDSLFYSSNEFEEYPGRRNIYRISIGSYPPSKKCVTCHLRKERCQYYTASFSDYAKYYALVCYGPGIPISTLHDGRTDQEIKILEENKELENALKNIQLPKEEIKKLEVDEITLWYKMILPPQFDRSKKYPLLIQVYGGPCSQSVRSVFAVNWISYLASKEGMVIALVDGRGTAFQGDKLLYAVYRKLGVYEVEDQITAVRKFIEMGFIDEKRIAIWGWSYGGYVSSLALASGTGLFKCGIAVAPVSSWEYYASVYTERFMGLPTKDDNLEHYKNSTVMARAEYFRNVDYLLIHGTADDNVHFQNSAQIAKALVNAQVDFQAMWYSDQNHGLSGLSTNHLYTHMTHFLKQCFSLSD

B1: BisG1-FAPα-FERL/DR4-FERR (bispecific antibody, human IgG1, kappa, lambda)
heavy 1: EVQLLESGGGLVQPGGSPRLSCEASGFTFSSYALSWVRQAPGKGLEWVSAISGSGGGRYYADSVKGRFTISRDNSKNTLFLQMNSLRAEDTAVYYCAKEGYSSSGTYWDHWGQGTLVTVSSASTKGPSVFPLAPSSKSTSGGTAALGCLVKDYFPEPVTVSWNSGALTSGVHTFPAVLQSSGLYSLSSVVTVPSSSLGTQTYICNVNHKPSNTKVDKRVEPKSCDKTHTCPPCPAPEFERGPSVFLFPPKPKDTLMISRTPEVTCVVVDVSHEDPEVKFNWYVDGVEVHNAKTKPREEQYNSTYRVVSVLTVLHQDWLNGKEYKCKVSNKALPAPIEKTISKAKGQPREPQVYTLPPSREEMTKNQVSLTCLVKGFYPSDIAVEWESNGQPENNYKTTPPVLDSDGSFLLYSKLTVDKSRWQQGNVFSCSVMHEALHNHYTQKSLSLSPG
light 1: AIQMTQSPSSVSASVGDRVTITCRASQGVSSWLAWYQQKPGRAPKLLIYVASTLQSGVPSRFSGSGSGTDFTLTINSLQPEDFATYYCQQANSFPPTFGQGTRLEMKRTVAAPSVFIFPPSDEQLKSGTASVVCLLNNFYPREAKVQWKVDNALQSGNSQESVTEQDSKDSTYSLSSTLTLSKADYEKHKVYACEVTHQGLSSPVTKSFNRGEC
heavy 2: QVQLQESGPGLVKPSGTLSLTCAVSGGSISSYSWWSWIRQPPGKGLEWIGELYHSGSTNYNPSLKSRVTISVDKSKNQFSLKLRSVTAADTAVYYCVRGVATIDYWGQGTLVTVSSASTKGPSVFPLAPSSKSTSGGTAALGCLVKDYFPEPVTVSWNSGALTSGVHTFPAVLQSSGLYSLSSVVTVPSSSLGTQTYICNVNHKPSNTKVDKRVEPKSCDKTHTCPPCPAPEFERGPSVFLFPPKPKDTLMISRTPEVTCVVVDVSHEDPEVKFNWYVDGVEVHNAKTKPREEQYNSTYRVVSVLTVLHQDWLNGKEYKCKVSNKALPAPIEKTISKAKGQPREPQVYTLPPSREEMTKNQVSLTCLVKGFYPSDIAVEWESNGQPENNYKTTPPVLDSDGSFFLYSRLTVDKSRWQQGNVFSCSVMHEALHNHYTQKSLSLSPG
light 2: QSALTQPPSASGSPGQSVTISCTGTSSDVGGYNFVSWYQQDPGKAPKLLIYEVTKRPSGVPDRFSGSKSGNTASLTVSGLQAEDEADYYCSSYAGSNNVMFGGGTKLTVLGQPKAAPSVTLFPPSSEELQANKATLVCLISDFYPGAVTVAWKADSSPVKAGVETTTPSKQSNNKYAASSYLSLTPEQWKSHRSYSCQVTHEGSTVEKTVAPTECS
notes: Human IgG1 bispecific made by controlled Fab-arm exchange of IgG1-FAPα-FERL and IgG1-DR4-FERR; monovalent for FAPα and for DR4; also called GEN1057
B2: BisG1-FAPα-FERL/b12-FERR (bispecific antibody, human IgG1, kappa)
heavy 1: B1 heavy 1
light 1: B1 light 1
heavy 2: QVQLVQSGAEVKKPGASVKVSCQASGYRFSNFVIHWVRQAPGQRFEWMGWINPYNGNKEFSAKFQDRVTFTADTSANTAYMELRSLRSADTAVYYCARVGPYSWDDSPQDNYYMDVWGKGTTVIVSSASTKGPSVFPLAPSSKSTSGGTAALGCLVKDYFPEPVTVSWNSGALTSGVHTFPAVLQSSGLYSLSSVVTVPSSSLGTQTYICNVNHKPSNTKVDKRVEPKSCDKTHTCPPCPAPEFERGPSVFLFPPKPKDTLMISRTPEVTCVVVDVSHEDPEVKFNWYVDGVEVHNAKTKPREEQYNSTYRVVSVLTVLHQDWLNGKEYKCKVSNKALPAPIEKTISKAKGQPREPQVYTLPPSREEMTKNQVSLTCLVKGFYPSDIAVEWESNGQPENNYKTTPPVLDSDGSFFLYSRLTVDKSRWQQGNVFSCSVMHEALHNHYTQKSLSLSPG
light 2: EIVLTQSPGTLSLSPGERATFSCRSSHSIRSRRVAWYQHKPGQAPRLVIHGVSNRASGISDRFSGSGSGTDFTLTITRVEPEDFALYYCQVYGASSYTFGQGTKLERKRTVAAPSVFIFPPSDEQLKSGTASVVCLLNNFYPREAKVQWKVDNALQSGNSQESVTEQDSKDSTYSLSSTLTLSKADYEKHKVYACEVTHQGLSSPVTKSFNRGEC
B3: IgG1-b12 (antibody)
heavy: not shown
light: B2 light 2
notes: HIV gp120 antibody b12 with wild-type IgG1 Fc; also called IgG-b12

Experiments:
[1] = biological target: T1, human FAPα (Fibroblast activation …); assay: flow cytometry, CAFs, n = 2
Experimental: Binding of bispecific or monoclonal antibodies carrying the anti-FAPα arm derived from IgG1-FAPα-FERL (BisG1-FAPα-FERL/DR4-FERR, BisG1-FAPα-FERL/b12-FERR, and IgG1-FAPα-FERL) to cell surface expressed human FAPα was analyzed by flow cytometry using human lung fibroblasts and CAFs, which endogenously express FAPα. BisG1-b12-FERL/b12-FERR was used as negative control.
Human lung fibroblasts and CAFs (50,000 cells/well) were seeded in 96-Well round bottom plates (Greiner Bio-one, Cat #650101). Antibody dilutions were prepared using fluorescence-activated cell sorting (FACS) buffer, consisting of phosphate buffer saline (PBS, Lonza, Cat #BE17-517Q)+1% Bovine Serum Albumin (BSA, Roche, Cat #10735086001)+0.02% Sodium Azide (Bio-World, Cat #41920044-3). Plates were centrifuged, supernatant was removed, cells were resuspended in 50 μL of human Fc Block (BD, Cat #564220, diluted 1:100 in FACS buffer) and 50 μL of viability stain TO-PRO-3 Iodide (Thermo Fisher, Cat #T3605, diluted 1: 25,000 in FACS buffer), and incubated for 15 min at 4° C. Plates were washed three times with FACS buffer. […] Antibody binding to viable cells (TO-PRO-3 negative) was analyzed by flow cytometry on a FACSCelesta™ (BD biosciences) and data were processed using FlowJo_v10.8.1 (FlowJo LLC). Geomean fluorescence intensity, gMFI, was determined and visualized using GraphPad Prism.

[2] = biological target: T2, FcγRIa (CD64 Protein, Human, Recombinant (ECD, His Tag)) (human, UniProt P12314 16-292); assay: SPR (Biacore 8K), His-tagged FcγRIa captured on an anti-His chip, antibody as analyte, endpoint response against concentration
T2 construct: extracellular domain; Bought reagent; not shown: His tag
T2 sequence (P12314 16-292): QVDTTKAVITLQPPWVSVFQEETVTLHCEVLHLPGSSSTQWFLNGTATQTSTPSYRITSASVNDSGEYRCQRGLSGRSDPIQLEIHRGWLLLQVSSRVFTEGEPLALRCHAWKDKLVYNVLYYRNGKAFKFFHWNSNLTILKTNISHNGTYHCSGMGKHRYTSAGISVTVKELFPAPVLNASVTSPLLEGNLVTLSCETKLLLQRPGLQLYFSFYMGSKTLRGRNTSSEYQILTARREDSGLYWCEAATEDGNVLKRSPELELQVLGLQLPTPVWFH
Experimental: (§1) Binding of BisG1-FAPα-FERL/DR4-FERR to immobilized human His-tagged FcγRs and FcRn was analyzed by SPR using a Biacore 8K SPR system (Cytiva). To this end, anti-His antibodies were covalently immobilized on the surface of Biacore Series S Sensor Chip CM5 (Cytiva, Cat. #29104988) using the Amine Coupling Kit (Cytiva, Cat. #BR100050) and a His Capture Kit (Cytiva, Cat. #29234602) according to the manufacturer's instructions. To assess antibody binding to immobilized human FcγRs, aliquots of the recombinant His-tagged FcγR proteins (Table 24) were diluted in HBS EP+Buffer pH 7.4 (Cytiva, Cat. #BR100669) and used to capture the FcγR proteins on the surface of the anti-His antibody-coated sensors using a flow rate of 10 μL/min and a contact time of 60 s. Captured levels ranged from 434 to 592 RU. After three start-up cycles of HBS-EP+Buffer, concentration ranges of BisG1-FAPα-FERL/DR4-FERR or IgG1-b12 antibodies (Table 25) were injected to generate binding curves on FcγR-captured sensors (active surface). For each antibody sample, a parallel flow cell without captured FcγRs was included (reference surface), which was used for RU background correction.
(§2) All sensorgrams were subtracted by the signal of the third start-up cycle with buffer only (mock analyte). […]

[3] = biological target: T3, FcγRIIIa-F158 (CD16a Protein, Human, Recombinant (ECD, 176 Phe, His & AVI Tag)) (human, UniProt P08637 17-208); assay: SPR (Biacore 8K), His-tagged FcγRIIIa-F158 captured on an anti-His chip, antibody as analyte, endpoint response against concentration
T3 construct: extracellular domain; Bought reagent; not shown: His & AVI tag
T3 sequence (P08637 17-208): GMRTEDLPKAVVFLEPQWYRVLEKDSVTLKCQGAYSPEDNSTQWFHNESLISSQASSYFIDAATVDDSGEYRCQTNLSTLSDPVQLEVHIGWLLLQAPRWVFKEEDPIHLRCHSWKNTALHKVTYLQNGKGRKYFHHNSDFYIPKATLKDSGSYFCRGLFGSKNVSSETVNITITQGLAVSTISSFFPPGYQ
Experimental: as §1, §2

Binder	EC50 [1] [µg/mL]	binding result [2]	binding result [3]
B1	0.232	–	–
B2	0.231	–	–
B3	–	binds	binds
